Key:
Assay in all cases: BLI; Octet RED384; biotinylated neurexin LNS2 on streptavidin tips, Nxph in solution; 25°C, PBS pH 7.4, 50 nM TCEP, 1% BSA; global fit, double reference subtraction
[1] = biological target: Nrxn1 LNS2^SS2AB+, AviTag-His, biotinylated (BLI) (mouse)
[2] = biological target: Nrxn3 LNS2^SS2− (I401Q), AviTag-His, biotinylated (BLI) (mouse)
[3] = biological target: Nrxn3 LNS2^SS2−, AviTag-His, biotinylated (BLI) (mouse)
[4] = biological target: Nrxn1 LNS2^SS2AB+ (I401Q), AviTag-His, biotinylated (BLI) (mouse)
[5] = biological target: Nrxn2 LNS2^SS2−, AviTag-His, biotinylated (BLI) (mouse)
[6] = biological target: Nrxn2 LNS2^SS2− (I401Q), AviTag-His, biotinylated (BLI) (mouse)

Nxph3-2XFLAG-His (rat neurexophilin-3, 50-252), sequence (Q9Z2N5 50-252): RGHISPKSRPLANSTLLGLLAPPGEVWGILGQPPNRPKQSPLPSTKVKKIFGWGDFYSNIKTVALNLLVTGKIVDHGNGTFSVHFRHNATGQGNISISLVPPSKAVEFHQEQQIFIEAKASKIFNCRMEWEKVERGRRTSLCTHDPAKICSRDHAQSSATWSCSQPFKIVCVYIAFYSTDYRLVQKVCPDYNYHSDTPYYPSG
Nxph1-2XFLAG-His (mature rat neurexophilin-1, 118-271, glycosylated), sequence (Q63366 118-271): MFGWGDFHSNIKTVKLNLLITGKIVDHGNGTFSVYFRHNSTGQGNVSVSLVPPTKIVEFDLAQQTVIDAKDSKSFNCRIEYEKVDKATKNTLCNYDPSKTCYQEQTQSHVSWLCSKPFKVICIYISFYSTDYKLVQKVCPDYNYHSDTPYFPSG

| Substance | Kd [1] | koff [1] | kon [1] | Kd [2] | koff [2] | kon [2] | Kd [3] | koff [3] | kon [3] | Kd [4] | koff [4] | kon [4] | Kd [5] | koff [5] | kon [5] | Kd [6] | koff [6] | kon [6] |
| --- | --- | --- | --- | --- | --- | --- | --- | --- | --- | --- | --- | --- | --- | --- | --- | --- | --- | --- |
| Nxph1-2XFLAG-His (mature rat neurexophilin-1, 118-271, glycosylated) (from UniProt Q63366 118-271) (ligand) | 0.0433 µM | 9.4e-05 s⁻¹ | 2170 M⁻¹ s⁻¹ | 1940 µM | 0.012 s⁻¹ | 10.5 M⁻¹ s⁻¹ | 0.207 µM | 9.2e-05 s⁻¹ | 444 M⁻¹ s⁻¹ | 0.499 µM | 0.00034 s⁻¹ | 674 M⁻¹ s⁻¹ | 0.124 µM | 6.9e-05 s⁻¹ | 554 M⁻¹ s⁻¹ | 39.3 µM | 0.0025 s⁻¹ | 381 M⁻¹ s⁻¹ |
| Nxph3-2XFLAG-His (rat neurexophilin-3, 50-252) (from UniProt Q9Z2N5 50-252) (ligand) | – | – | – | 3.5 µM | 0.00053 s⁻¹ | 153 M⁻¹ s⁻¹ | 0.177 µM | 3.1e-05 s⁻¹ | 178 M⁻¹ s⁻¹ | – | – | – | 0.212 µM | 6.7e-05 s⁻¹ | 302 M⁻¹ s⁻¹ | 1.31 µM | 0.00044 s⁻¹ | 350 M⁻¹ s⁻¹ |
